B1: AT12-010 (antibody, V domains shown)
VH: QLQLVQSGAEVKKPGSSVKVSCKASGGTFTSYAINWVRQVPGQGLEWMGEISPVFGTTHYAQKFQGRLKITADESADTAYMELSSLRSDDTAVYYCGRDRAPRLCSGGRCHSPPDHWGQGTLVTVSS
VL: DIQMTQSPSSVSASVGDRVTITCRASQGFGNWLAWYQQKPGRAPKLLIFGASTLQNGVPSRFSGSASGTDFTLTITSLQPEDFATYYCLQTNTFPYTFGQGTKVEIKR
B2: AT12-007 (antibody, V domains shown)
VH: QVQLEQSGAEVKKPGASVKVSCKVSGYTLTELSMHWVRQAPGKGLEWMGSFDPADGERLYAQKFQGRVIMSEDTSTDTAYMELSSLRSEDAAVYYCATAPRMTMFGVIMALDSWGQGTLVTVSS
VL: DIQMTQSPSTLSASLGDRVTITCRASQNINKYLAWYQQKPGKAPKLLIYKASNLQSGVPSRFSGSGSGTDFILTISSLQPDDFATYYCQQYTTYSAWTFGQGTNVDIKR

Columns and labels:
[1] = biological target: E1E2 of HCV isolate H77 (genotype 1a), wild type (Hepatitis C virus genotype 1a, strain …, UniProt P27958 192-383; P27958 384-746); experiment: cell-based or functional assay
[2] = biological target: E1E2 of HCV isolate AMS.1b.20877857 (genotype 1b) (Hepatitis C virus genotype 1b); experiment: cell-based or functional assay
[3] = biological target: E1E2 of HCV isolate AMS.2b.20876551.kloon21 (genotype 2b) (Hepatitis C virus genotype 2b); experiment: cell-based or functional assay
[4] = biological target: E1E2 of HCV isolate AMS.3a.21071213 (genotype 3a) (Hepatitis C virus genotype 3a); experiment: cell-based or functional assay
[5] = biological target: E1E2 of HCV isolate UKN4.11.1 (genotype 4) (Hepatitis C virus genotype 4); experiment: cell-based or functional assay
[6] = biological target: E1E2 of HCV isolate AMS.4d.20875969 (genotype 4d) (Hepatitis C virus genotype 4d); experiment: cell-based or functional assay
[7] = biological target: E1E2 of HCV isolate H77 with single mutation T435A (Hepatitis C virus genotype 1a, strain …, UniProt P27958 192-383; P27958 384-746); experiment: ELISA, GNA-captured E1E2 lysate; EC50 wild type / EC50 mutant
[8] = biological target: E1E2 of HCV isolate H77 with single mutation G436A (Hepatitis C virus genotype 1a, strain …, UniProt P27958 192-383; P27958 384-746); experiment: as above
[9] = biological target: E1E2 of HCV isolate H77 with single mutation F442A (Hepatitis C virus genotype 1a, strain …, UniProt P27958 192-383; P27958 384-746); experiment: as above
[10] = biological target: E1E2 of HCV isolate H77 with single mutation Y485A (Hepatitis C virus genotype 1a, strain …, UniProt P27958 192-383; P27958 384-746); experiment: as above
[11] = biological target: E1E2 of HCV isolate H77 with single mutation T526A (Hepatitis C virus genotype 1a, strain …, UniProt P27958 192-383; P27958 384-746); experiment: as above
[12] = biological target: E1E2 of HCV isolate H77 with single mutation Y527A (Hepatitis C virus genotype 1a, strain …, UniProt P27958 192-383; P27958 384-746); experiment: as above
[13] = biological target: E1E2 of HCV isolate H77 with single mutation W529A (Hepatitis C virus genotype 1a, strain …, UniProt P27958 192-383; P27958 384-746); experiment: as above
[14] = biological target: E1E2 of HCV isolate H77 with single mutation D535A (Hepatitis C virus genotype 1a, strain …, UniProt P27958 192-383; P27958 384-746); experiment: as above
[15] = biological target: E1E2 of HCV isolate H77 with single mutation W616A (Hepatitis C virus genotype 1a, strain …, UniProt P27958 192-383; P27958 384-746); experiment: as above
[16] = biological target: E1E2 of HCV isolate H77 with single mutation R657A (Hepatitis C virus genotype 1a, strain …, UniProt P27958 192-383; P27958 384-746); experiment: as above
[17] = biological target: E1E2 of HCV isolate H77 with single mutation D698A (Hepatitis C virus genotype 1a, strain …, UniProt P27958 192-383; P27958 384-746); experiment: as above
[18] = biological target: T1, soluble E2-his6-sortase tag from HCV isolate H77 (genotype 1a) (Hepatitis C virus genotype 1a, strain …, UniProt P27958 384-717); experiment: SPR (IBIS MX96), antibody spotted on chip, soluble E2-his as analyte
T1 construct: also called E2-his6-ST; E2 genotype 1a

[19] = biological target: T2, soluble E2-his6-sortase tag from HCV isolate AMS.2b.20876551.kloon21 (genotype 2b) (Hepatitis C virus genotype 2b); experiment: as above
T2 chain: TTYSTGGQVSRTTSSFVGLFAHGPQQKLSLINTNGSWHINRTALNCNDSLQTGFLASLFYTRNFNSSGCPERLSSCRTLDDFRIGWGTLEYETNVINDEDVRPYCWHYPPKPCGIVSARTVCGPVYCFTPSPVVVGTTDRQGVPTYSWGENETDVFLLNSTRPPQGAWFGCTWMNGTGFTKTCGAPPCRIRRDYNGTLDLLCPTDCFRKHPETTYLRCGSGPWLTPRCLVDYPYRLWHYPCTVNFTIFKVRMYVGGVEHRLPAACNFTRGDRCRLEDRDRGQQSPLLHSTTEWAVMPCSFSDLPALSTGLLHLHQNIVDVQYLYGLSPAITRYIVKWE

Row | Binder | IC50, HCVpp neutralization [1] [µg/mL] | IC90, HCVpp neutralization [1] [µg/mL] | IC50, HCVpp neutralization [2] [µg/mL] | IC90, HCVpp neutralization [2] [µg/mL] | IC50, HCVpp neutralization [3] [µg/mL] | IC90, HCVpp neutralization [3] [µg/mL] | IC50, HCVpp neutralization [4] [µg/mL] | IC90, HCVpp neutralization [4] [µg/mL] | IC50, HCVpp neutralization [5] [µg/mL] | IC90, HCVpp neutralization [5] [µg/mL] | IC50, HCVpp neutralization [6] [µg/mL] | IC90, HCVpp neutralization [6] [µg/mL] | relative binding, mutant vs wild type [7] [%] | relative binding, mutant vs wild type [8] [%] | relative binding, mutant vs wild type [9] [%] | relative binding, mutant vs wild type [10] [%] | relative binding, mutant vs wild type [11] [%] | relative binding, mutant vs wild type [12] [%] | relative binding, mutant vs wild type [13] [%] | relative binding, mutant vs wild type [14] [%] | also measured
1 | B1 | 1.06 | > 50 | 0.47 | 8.51 | 0.61 | 20.4 | 1.41 | > 50 | > 50 | > 50 | > 50 | > 50 | 47 | < 10 | < 10 | 107 | 29 | 19 | < 10 | 5 | relative binding, mutant vs wild type [15]: < 10%; relative binding, mutant vs wild type [16]: 99%; relative binding, mutant vs wild type [17]: 86%; Kd [18]: 39.3 nM; koff [18]: 0.00142 s⁻¹; Kd [19]: 22.8 nM; koff [19]: 0.00098 s⁻¹
2 | B2 | 2.67 | > 50 | 0.04 | 0.5 | 0.26 | 9.41 | 1.42 | 21.7 | 1.87 | > 50 | > 50 | > 50 | 84 | 35 | < 10 | 114 | 31 | 24 | < 10 | 15 | relative binding, mutant vs wild type [15]: < 10%; relative binding, mutant vs wild type [16]: 116%; relative binding, mutant vs wild type [17]: 103%; Kd [18]: 44 nM; koff [18]: 0.00184 s⁻¹; Kd [19]: 3.8 nM; koff [19]: 0.00019 s⁻¹
